According to the DeepSol protein solubility set:

Assay: soluble on expression in E. coli; label from the status in PepcDB or PDB records

Sequence	soluble on expression in E. coli
MSLGANIVSVEFIPVNVAATNWSENTVIVKVTDENGVYGLGEADGPPECMKAFSEIENEHKWLNNIKEAVIGRDPLEFRANYNRMYDTTKWIGMRGLGLFAISGIDMALYDLAGKQLGVPAYKLMGGAQKAQLTPYFTLYPSVAADATLSEIVEAYKPLIAKAKERGAKAVKVCIIPNDKVSDKEIVAYLRELREVIGWDMDMMVDCLYRWTDWQKARWTFRQLEDIDLYFIEACLQHDDLIGHQKLAAAINTRLCGAEMSTTRFEAQEWLEKTGISVVQSDYNRCGGVTELLRIMDICEHHNAQLMPHNWKTGITAAAARHFGIVCHISEYVEYLHPDFWNGTLTQQLTLNEPKIIDGAIEVSDKPGLGIELNIEFVEQVTGHKFEGHHHHHH	soluble
MGSDKIHHHHHHMLLKLLHYLRCPQCRSQLSLSEATVGDWVEQGQLLCTQCRRTYAITKGIAYLYVENEEWKQLAAEAAGWVQMAKDAGCYDQTGIDIDFRLPYVPIPPWIDIARAFDIVLNIVRPRPGAMVVDIGAGRGWAAKQFAIRGCHAVAVEINDDDQIGLGRSLALMQHANVQYDLLIASSQRLPLADESFDIVFASAALHHSSCLATLLSEAARVLRRGGKLIAIHEPCIADHVTPEQDAPNIAQETAYNIHESRPKLDDYRHALRHAGLQELALFNHELYGTSIEDMQQWAANHWLSLLTADQIAMLRRKRTPTLWRTIRILRSRLQQLPDTTLVPPQDWMDQYYRHVGGSLTIIAQKP	not soluble
GPGSMVALIDTSCYSADCTLSALVPQHAMKPYRLLVTMELIASLGLKRFCRTVVPPPIGIKELLTYHAEDYILNLGLHSNRSWLWNTEVSKVTFSGDCPPVEGIVEYSLSTVSGSLMAAVLLNSGAVDTAIHWGGGMHHAKCGECSGFCYVNDIVIAIIELLKCHDRVLYVDLDMHHGDGVDEAFCRSRRVFTLSLHKFGESFFPGTGHPRDVGIGNGRHYTMNLAMWDGVDDFYYTTVFERALRSIVKRFNPNVVVLQCGADSLAGDRLGHFNLSSWGHGKCVEEVKKLGLPMLVVGGGGYTLRNVAKLWAYETSILCGKRLPLNTVIPLHRMPLSGWLFEESPQLLVSQDEENKPLPGVNVQRSFRVIIEQIDKHCPNIMTV	not soluble
MSLKKALFLILDQYADWEGVYLASALNQREDWSVHTVSLDPIVSSIGGFKTSVDYIIGLEPANFNLLVMIGGDSWSNDNKKLLHFVKTAFQKNIPIAAICGAVDFLAKNGLLNNHSHTGNFVYLWKDYKQYKPISSFVEKQAVRDKNLVTANGTAPIEFTNLILEMIDFDTPENIEKMMYMNRYGFYHFCDKYGNPFVEGHHHHHH	soluble
MAKKSSGSAPSRASGRSGKQTTHFQVVHDATKHRAKRSKSSKSGDSKSSSQDASVKKILDHKLFNTHYVEYNVLLSNGRKMMATEFDFEGKKEQKLLADYKYKITNQDDDPDEDFAVEKIIAHRFSGKKNKPLFLVMWRGYPNPVSHSEMWENELSNCKDLLEAYKDSHDMKPPPVKKSNKKKGSKKSPKKSAKSKDDDSSDEEEEEEVKEKSPKKSSKSTKRAASDDDEEEEPVATKKSKKSKRAETPEEEDDEEEEVVKTPKKTKKSKRAETPEEEDEVEEEVVKTPKKSKSSKSPKKSKRAETSDEEDEDEEDEKEAPKSSKKQEKAKSSKRVAEDSGNEEEDQDNTSGSGSEGEEEEEEASSNGKRKSRH	not soluble
MGSDKIHHHHHHMNPNIAKISSLLSDPSRSSILLSLMDGRIHPAGELAYLANIKPQTASFHLNKLLEAKLISVEKHGRHRYYRLADSDAANVIEQLLHIAPKAKVKSLKESKEKKDLHFARTCYDHLAGYVGVQMAHSLVEQGMLKKVDLNFEVTSEGALFFSKLGINEEQQRNKRRAFARCCLDWSERQHHIAGALGNALLVRMLEEEWIVRMPKTRAIRITQSGKIAFEKHLNVKI	not soluble
MTNAGTTDLSWLPSDADEQLALGFKIVTNAYKTRVTSQEAEIRSLKGQLTEKQEQLSSIQKKYSNLEVQLIESTQRGNQLADENKQLITTIKKLNRDIDRLENLKKAVLNSIQEEHDVEDAHKYYSADDLLQTTAPRTMLEMNGNEDSCQSIINKIVNSDTHNIINGSFNSPYIGNVPLGEKNTDGRAFFRNARSRLSYEQFNQFLSNIKKLNNHQQKREETLKKAQAIFGEANLDLYEEFKVLISKHS	not soluble
SNGEEEFFDAVTGFDSDNSSGEFSEANQKVTGMIDLDTSKNNRIGKTGERPSQENGIQKHRTSLPAPMFSRSDFSVWTILKKCVGLELSKITMPIAFNEPLSFLQRITEYMEHVYLIHRASCQPQPLERMQSVAAFAVSAVASQWERTGKPFNPLLGETYELIREDLGFRFISEQVSHHPPISAFHSEGLNHDFLFHGSIYPKLKFWGKSVEAEPRGTITLELLKHNEAYTWTNPTCCVHNVIIGKLWIEQYGTVEILNHRTGHKCVLHFKPCGLFGKELHKVEGHIQDKNKKKLFMIYGKWTECLWGIDPVSYESFKKQERRGDHLRKAKLDEDSGKADSDVADDVPVAQETVQVIPGSKLLWRINTRPPNSAQMYNFTSFTVSLNELETGMEKTLPPTDCRLRPDIRGMENGNMDLASQEKERLEEKQREARRERAKEEAEWQTRWFYPGNNPYTGTPDWLYAGDYFERNFSDCPDIY	soluble
MGSDKIHHHHHHMRAALAQGCDPMVLTGEVWPKWRIWTRDADRFLDDAPLNKLTAPAGIPLSSFRAATLKSVAERVSKGPLPDRAVWPWILALGARNTKRRSGLQYCPDCLRDDRIPYYRLQWRLAWHVGCEHHHCSLLDRCPHCRAPLEPHRLHAEDGHMAVCATCRGDLRDVGAITPCSDDAMAFQDAGDEAIRHGSGQFMAHPTETDAWFAGASFLSALLRRANRSDAEALHVFLERMGVAVPELPLNPGTGVELLGTAERHLLLGALWKLMRTDLADVSKYLQESGITRQGFVSKGERMPDLFAETFAQLPDNARGPRKQAVRDPGQPRPRHEVMRMWRRLQRKLEMSQR	not soluble
MVYTVDFKEVATIGLESSPVAPALAGLRANEARYFWNKYKHRFTTVPASEAPETLAWIEKILLERELHFPYKPLEISSFTLDGIKMAYVFYENGLAVNVMYTLAEEGKRAVGFKLSDGMAIPAEFEGKFKFARQKSKLAGTIRGSYFVIKGTY	soluble
MNEQIPHDKSLDNSLTLLKEGYLFIKNRTERYNSDLFQARLLGKNFICMTGAEAAKVFYDTDRFQRQNALPKRVQKSLFGVNAIQGMDGSAHIHRKMLFLSLMTPPHQKRLAELMTEEWKAAVTRWEKADEVVLFEEAKEILCRVACYWAGVPLKETEVKERADDFIDMVDAFGAVGPRHWKGRRARPRAEEWIEVMIEDARAGLLKTTSGTALHEMAFHTQEDGSQLDSRMAAIELINVLRPIVAISYFLVFSALALHEHPKYKEWLRSGNSREREMFVQEVRRYYPFGPFLGALVKKDFVWNNCEFKKGTSVLLDLYGTNHDPRLWDHPDEFRPERFAEREENLFDMIPQGGGHAEKGHRCPGEGITIEVMKASLDFLVHQIEYDVPEQSLHYSLARMPSLPESGFVMSGIRRKS	soluble
MKIAIGSDHAGFPLKEKIKEFLKGEGHKVIDVGTHAQESTHYPIYAKEVVRAIRSGKAERGILICGTGIGMSITANKFRGIRAALCTNEYMARMSRLHNDANVLCLGERVLGVELALSIVKVWLETPFEGGRHLKRLEIISEIEDEICGENIPR	soluble
MGRSQATAESYRDSLTIFKNYLVGELGKSISTFQFSDCTKECIYNFREYLLANGSQPSTVNVRVAAIRAYLNYASDMDISVQSVALAISQISPCLEHHHHHH	not soluble
MSDVARILKEARDQGRLTALDFAKEIFDDFIELHGDRNFRDDGAVIGGIGRLNGQAVTVVGIQKGKNLQDNLNRNFGQPHPEGYRKALRLMKQAEKFGRSVVTFINTAGAYPGVGAEERGQGEAIARNLMEMSDLKVPIIAIIIGEGGSGGALALAVADKVWMLENTIYSILSPEGFATILWKDGSRSEEAAELMKITSGELLNMGIVDKVIPERGYFTSEIIEAIKTAIVDELAELSQLSTEDLLEARYQRFRKY	not soluble
MVSTHSSQYITDFTPVPAEPGKSPLALLAKTCETIGLPEGSSKKNGASSSSSPQGKKDEKNHILHHQHHQQQQQSKQKSSPRSTPQSKEPTLTFPGLPKPSFPMGMPGMMQGFPFFNPMMTAYGCFPGAFPMSQGFMGAQRLPCPFAMMRQPCANPACVQCPSSSSNAAKNGQMTAEMMSQFAAHPLFSMYAGMMPGVPTSSYQALLAASAAASTSAGPTDYSNVASTSKASPQPKPTAQKSQKSAKFPCNWVDSDVPCGKVFDEENELASHVKKMHAPSPSSSASSEQSTSTGKASRSSTTTPHRFNPYGKPVAPAPPTMQQMGMNMAMNPLVLPFSLQAMYSNRLMSTVAHQ	not soluble
LINILEQAKQKNTAQGSESTTNKIIGYTTTANVNVDNQNIFSVSKLNNEQFQRKIIVNATEETLDQSQTLQSNESIVLPMPGKYKSTDKNK	soluble
MGSDKIHHHHHHMDSSRSDPMRLMIFGAGYSGKAIGQHFIQQGIPVSGTTRSPAKAKALSDLGIEPLVFDGQRLSDEIIQAMACATHVVQSIAPGSDGDPLLRLTQGALKTWMPKVQWLAYLSTVGVYGDHQGAWVDEDTVCKPVSVRSKERVEAEQAWGRAALAAGVPLSTLRLSGIYGPGRNGLVNMAEGTARRLVKKDQVFNRIRVEDIAAATWFLAGRNEQGIFNITDHEPAPPQDVVAEAARLMEVEPPPEQAFETAELSPMARSFYGENKRVMNAKVRALGFAFAYPDYRVSLSQLWSSGRWRG	not soluble
MSLKAYKTDGTHFRAITRQTLLGADEDERALGHQTRYFEIAPGGYSSLERHQHTHTVMILRGQGELILGDALHRIGRHDCIYIAPQTFHQFHASGDEPLGFLCIVDRERDRPREGHHHHHH	not soluble
MAFSSRKEISSRNSERSTDDTACLRMSENGVALWCEKNVFVQENQPFVDYLPYFCSKVIGTLSIGKNLCGSFSGEKQSIPDKTIMVNIKI	not soluble
LVPRGSAMGSGNDTSRGANKTVVVTTILESPYVMMKKNHEMLEGNERYEGYCVDLAAEIAKHCGFKYKLTIVGDGKYGARDADTKIWNGMVGELVYGKADIAIAPLTITLVREEVIDFSKPFMSLGISIMIKKGTPIESAEDLSKQTEIAYGTLDSGSTKEFFRRSKIAVFDKMWTYMRSAEPSVFVRTTAEGVARVRKSKGKYAYLLESTMNEYIEQRKPCDTMKVGGNLDSKGYGIATPKGSSLGNAVNLAVLKLNEQGLLDKLKNKWWYDKGECGS	soluble
MGSDKIHHHHHHMKQEFLHIASSLWATVAAQISRHTGQTFAPESLTPIGGGCINQTFCIRDHERQYFVKLNKAGNLAMFESEAAGLGEILDSASLRVPQPLCCGSHHDDAWLVLEFIDLQNRGNAAALGIGLANMHRHTAETFGWIRDNTIGSTPQRNATASDWISFWRQHRLGYQLNLARKNGHTGSLQSLGERLLSEFQHFFTDTLPLPSLLHGDLWGGNYAFDQDGQPVIFDPAVYYGDREADLAMTELFGGFPPDFQAAYRDTWPVETGYTTRKQLYNLYHILNHLNLFGPQYLSQAEITMKKLLAELY	not soluble
MAHHHHHHMCADGVDKVPDETDNRETNEKKRPKRKRRYIDIDKMNFDFEEEDFASSSNEELVRRNYVNEEEYTGGYANGYTNEHMNGLPYQKDINMNSEVIRGLLEPPPIPFNDTFQKYNREISDVYVKQKKKSSGTLNIFLESQLLCIDEGAFEKENNFINNHFDNFIMRKLNVVNTTNMQDTTNQNKDLQELLKYLMSWYFSGFYSGRVSMLKELHGE	soluble
MRTQWPSPAKLNLFLYITGQRADGYHTLQTLFQFLDYGDTISIELRDDGDIRLLTPVEGVEHEDNLIVRAARLLMKTAADSGRLPTGSGANISIDKRLPMGGGLGGGSSNAATVLVALNHLWQCGLSMDELAEMGLTLGADVPVFVRGHAAFAEGVGEILTPVDPPEKWYLVAHPGVSIPTPVIFKDPELPRNTPKRSIETLLKCEFSNDCEVIARKRFREVDAVLSWLLEYAPSRLTGTGACVFAEFDTESEARQVLEQAPEWLNGFVAKGVNLSPLHRAML	soluble
